The source of these data is paper PMC11861921.

Assay [1] addresses rat brain synaptosomes (sites that bind 125I-charybdotoxin). As to the kind of experiment: radioligand binding.
For assay [2], the target named is rat brain synaptosomes (sites that bind 125I-apamin). Briefly: radioligand binding; competition with 125I-apamin on rat brain synaptosomes.
For assay [3], the target named is human Kv1.3 channel (human) (UniProt P22001).

pIC50: −log10 of the molar value.

Chain of UniProt P22001 (P22001 whole entry): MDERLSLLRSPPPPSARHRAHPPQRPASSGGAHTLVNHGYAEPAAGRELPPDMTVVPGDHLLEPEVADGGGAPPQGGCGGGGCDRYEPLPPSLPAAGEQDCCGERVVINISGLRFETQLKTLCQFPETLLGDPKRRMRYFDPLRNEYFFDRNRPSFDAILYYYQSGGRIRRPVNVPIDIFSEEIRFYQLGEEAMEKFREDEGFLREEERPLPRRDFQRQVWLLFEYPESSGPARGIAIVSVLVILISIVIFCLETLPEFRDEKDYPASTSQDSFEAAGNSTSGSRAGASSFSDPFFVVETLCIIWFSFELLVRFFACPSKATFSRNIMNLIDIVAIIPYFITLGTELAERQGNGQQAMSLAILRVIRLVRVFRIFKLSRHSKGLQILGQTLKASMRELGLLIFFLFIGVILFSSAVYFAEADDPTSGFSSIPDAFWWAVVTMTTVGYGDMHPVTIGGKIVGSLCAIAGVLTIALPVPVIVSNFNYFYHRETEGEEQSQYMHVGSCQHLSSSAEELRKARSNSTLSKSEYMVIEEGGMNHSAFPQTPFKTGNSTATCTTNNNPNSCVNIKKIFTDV

As to MTX1 (peptide), the values for the pIC50 in assay [1] and in assay [2] were 8.30 and 8.77, respectively. Tb11a (peptide) had a decrease in Kv1.3 maximum current, patch-clamp (voltage clamp, whole-cell configuration) on HEK293T cells in assay [3] of 50%.
